Source: publication PMC5770437, “The crystal structure of D-xylonate dehydratase reveals functional features of enzymes from the Ilv/ED dehydratase family” (Scientific Reports, 2018)

Tests used:
[1] = biological target: T1, D-xylonate dehydratase from Caulobacter crescentus (CcXyDHT) (Caulobacter vibrioides, UniProt Q9A9Z2); test: X-ray crystal structure, […] Å; assay type: binding; conditions: holo form with Mg2+; Fe1 bound by Cys60 and Cys128, Fe2 by Cys200; active site
T1 construct: gene xylD; N-terminal Strep-tag II kept; expressed in E. coli; homotetramer; residues 1-591 (Asn3-His591 modelled); Lys130 carbamylated

[2] = biological target: D-xylonate dehydratase from Caulobacter crescentus (Caulobacter crescentus); test: crystal structure; holo-CcXyDHT at 2.7 Å, molecular replacement with 5J84, space group C2, a tetramer in the asymmetric unit; packing analysed with the PISA server
[3] = biological target: the molecule itself; test: crystal structure; re-refinement with PHENIX of the deposited apo So6PGDHT model (PDB 2GP4, 2.5 Å)

T1 sequence (Q9A9Z2 6-595): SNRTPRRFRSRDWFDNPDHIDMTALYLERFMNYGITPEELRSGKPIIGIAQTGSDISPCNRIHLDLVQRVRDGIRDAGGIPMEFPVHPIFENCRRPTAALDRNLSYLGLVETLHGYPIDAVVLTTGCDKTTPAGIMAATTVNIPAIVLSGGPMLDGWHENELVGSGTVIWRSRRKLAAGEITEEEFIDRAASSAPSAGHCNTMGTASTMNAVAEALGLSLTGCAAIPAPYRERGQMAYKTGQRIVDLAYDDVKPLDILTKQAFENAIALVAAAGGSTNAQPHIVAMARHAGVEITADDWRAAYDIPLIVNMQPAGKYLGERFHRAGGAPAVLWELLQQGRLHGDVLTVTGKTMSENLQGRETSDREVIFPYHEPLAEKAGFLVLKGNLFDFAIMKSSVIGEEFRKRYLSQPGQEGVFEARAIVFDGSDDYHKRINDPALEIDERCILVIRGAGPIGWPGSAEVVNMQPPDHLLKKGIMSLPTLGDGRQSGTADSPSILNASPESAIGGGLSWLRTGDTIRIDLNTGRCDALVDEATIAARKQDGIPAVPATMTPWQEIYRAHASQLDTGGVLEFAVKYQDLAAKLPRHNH

Molecule: [S]1[Fe][S][Fe]1 [[2Fe-2S] cluster]
- X-ray crystal structure, 2.7 Å [1]: The crystal structure of CcXyDHT suggests that the enzyme has a [2Fe-2S] cluster

Molecule: D-xylonate dehydratase from Caulobacter crescentus (enzyme)
- stoichiometry N [2]: 4

B1: 6-phosphogluconate dehydratase from Shewanella oneidensis (enzyme)
chain: MHSVVQSVTDRIIARSKASREAYLAALNDARNHGVHRSSLSCGNLAHGFAACNPDDKNALRQLTKANIGIITAFNDMLSAHQPYETYPDLLKKACQEVGSVAQVAGGVPAMCDGVTQGQPGMELSLLSREVIAMATAVGLSHNMFDGALLLGICDKIVPGLLIGALSFGHLPMLFVPAGPMKSGIPNKEKARIRQQFAQGKVDRAQLLEAEAQSYHSAGTCTFYGTANSNQLMLEVMGLQLPGSSFVNPDDPLREALNKMAAKQVCRLTELGTQYSPIGEVVNEKSIVNGIVALLATGGSTNLTMHIVAAARAAGIIVNWDDFSELSDAVPLLARVYPNGHADINHFHAAGGMAFLIKELLDAGLLHEDVNTVAGYGLRRYTQEPKLLDGELRWVDGPTVSLDTEVLTSVATPFQNNGGLKLLKGNLGRAVIKVSAVQPQHRVVEAPAVVIDDQNKLDALFKSGALDRDCVVVVKGQGPKANGMPELHKLTPLLGSLQDKGFKVALMTDGRMSGASGKVPAAIHLTPEAIDGGLIAKVQDGDLIRVDALTGELSLLVSDTELATRTATEIDLRHSRYGMGRELFGVLRSNLSSPETGARSTSAIDELY
notes: 6-phosphogluconate dehydratase, Shewanella oneidensis, GenBank WP_011072452; apo form as in PDB 2GP4 (no [Fe-S] cluster, no Mg2+); The crystal data were deposited by others (PDB 2GP4, unpublished); also called So6PGDHT; SoPGDHT
- stoichiometry N [3]: 2
